We go through five substances from publication PMC7057950.

Experiment [1] addresses ligand binding domain of the glucocorticoid receptor, Atto488-labelled (GR-LBDm-Atto 488). Briefly: analytical ultracentrifugation. As to conditions: parent: est. 0.77; read off a plot.
Experiment [2] has as its target yHsp90 (Saccharomyces cerevisiae) (UniProt P02829). To be noted: remark: other sources report otherwise.

pKd: −log10 of the molar value.

Consider “human Hsp90β, wild type (from UniProt P08238) K607A”, for which, in experiment [1], the response (normalized dc/dt) came out at 0.58.
“human Hsp90β, wild type (from UniProt P08238) K607E”: the response (normalized dc/dt) in experiment [1] turned out to be 0.37.
Same read-out and setting: as for “human Hsp90β, wild type (from UniProt P08238) K607I”, the figure is 0.71; as for “human Hsp90β, wild type (from UniProt P08238) K607R”, 0.82.
yHsp90, P02829 showed a pKd in experiment [2] of 7.35.
